Source: the supplement of paper PMC9732359
± gives the uncertainty stated by the source.

Test: protein stability index of a GFP-peptide fusion (yeast GPS) (PSI 1-4); higher = more stable; sorted into four equal gates, so the index is relative within each strain
Procedure, shortened: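 Plasmids in a pooled yeast library fused tiled 17-residue yeast protein peptides downstream of GFP and also expressed Cherry. Mid-log cultures grown without leucine were sorted into four equal gates by GFP/Cherry fluorescence ratio. Each gate's plasmids were PCR-amplified and Illumina-sequenced, and reads were matched to strains by barcodes. The protein stability index is derived by multiplying each gate's read frequency by its gate number and summing the results.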

Sequence | protein stability index (doa10∆) | protein stability index (pdr5∆) | protein stability index (san1∆) | protein stability index (ubr1∆)
FPPPSVAARAEILRIHS [RPT6] | 1.72 ± 0.074 | 2.5 ± 0.085 | 1.54 ± 0.12 | 1.74 ± 0.046
FPSIPLPINGPITNKER [RPC31] | 2.23 ± 0.058 | 2.37 ± 0.064 | 2.17 ± 0.082 | 2.56 ± 0.11
FPVDPTTPVKLGPGIYC [RRP40] | 2.41 ± 0.058 | 2.48 ± 0.056 | 2.4 ± 0.052 | 2.2 ± 0.047
FPVSLSQPSKKSFANHT [SIR4] | 2.82 ± 0.051 | 2.87 ± 0.046 | 3.01 ± 0.054 | 3 ± 0.039
FQDYLTQQAVNLEKNYL [IRR1] | 2.15 ± 0.11 | 2.12 ± 0.11 | 2.02 ± 0.16 | 1.96 ± 0.11
FQEGVVVAKKDFNQAKH [RPS10A] | 2.1 ± 0.27 | 2.92 ± 0.27 | 2.91 ± 0.16 | 2.79 ± 0.12
FQKFLTGHPKGAAGAWM [FAS2] | 1.31 ± 0.25 | – | – | 1.56 ± 0.18
FQLLEPLSTYNKNGNAV [PGD1] | 2.81 ± 0.058 | 2.93 ± 0.057 | 2.77 ± 0.05 | 2.74 ± 0.036
FQNSKSASLFKQRKNPR [RPL24A] | 2.11 ± 0.097 | 2.44 ± 0.077 | 2.49 ± 0.1 | 1.85 ± 0.053
FQTIFSKQDLIHSLIPV [SIN4] | 1.93 ± 0.046 | 1.9 ± 0.064 | 1.66 ± 0.11 | 1.7 ± 0.05
FQTPFRRRREGKTDYYQ [RPL5] | – | 3.31 ± 0.12 | 2.97 ± 0.12 | 3.03 ± 0.11
FREWQYFKLSITSFDQD [POP8] | 1.94 ± 0.052 | 2.53 ± 0.06 | 2.52 ± 0.061 | 2.51 ± 0.045
FRHHVQIQQQQQKQQQQ [SNF5] | 2.71 ± 0.17 | – | 3.07 ± 0.13 | 2.57 ± 0.083
FRVNNASINTSATVKTS [ECM29] | – | – | 1.95 ± 0.17 | –
FRYITTWENEFLDSQRV [PRP8] | 2.77 ± 0.065 | 2.69 ± 0.059 | 2.48 ± 0.061 | 3.03 ± 0.046
FSISYKPPTQKTDTKVS [SRP21] | 2.24 ± 0.037 | 2.15 ± 0.042 | 1.98 ± 0.059 | 2.11 ± 0.033
FSKKGNEPLSEIEIEGV [YAR002W/NUP60] | 2.72 ± 0.11 | 3.17 ± 0.14 | 3.04 ± 0.08 | 3.15 ± 0.1
FSQFWYWFPLAHFLSLS [RPN2] | 1.66 ± 0.044 | 1.32 ± 0.045 | 1.21 ± 0.11 | 1.19 ± 0.038
FTAGARAKIVKAGGECI [RPL18A] | 1.29 ± 0.081 | 1.27 ± 0.067 | 1.18 ± 0.17 | 1.13 ± 0.061
FTITVARKYLQTRWGLP [FAS2] | 1.44 ± 0.092 | 1.29 ± 0.1 | 1.36 ± 0.21 | 1.96 ± 0.29
FTKYKPARSSSLRSNVV [YAR002W/NUP60] | 1.79 ± 0.046 | 2.44 ± 0.045 | 2.17 ± 0.07 | 2.7 ± 0.04
FTNGVLAVTNLLIISCI [YML031W/NDC1] | 1.89 ± 0.18 | 1.85 ± 0.17 | 1.79 ± 0.14 | –

Sequence | protein stability index (doa10∆) | protein stability index (pdr5∆) | protein stability index (san1∆) | protein stability index (ubr1∆)
FVCEKSIEFAKREKRVF [RPN6] | – | – | – | 2.41 ± 0.25
FVCRGMAATQTIEQSPR [ECM29] | 1.7 ± 0.063 | 1.93 ± 0.062 | 1.58 ± 0.23 | 1.56 ± 0.054
FVDENTFQRVCQYMVAC [RPN1] | 3.09 ± 0.074 | 2.59 ± 0.072 | 2.77 ± 0.095 | 2.99 ± 0.091
FVEEQNVYVLPKNLLKK [PRP8] | 2.54 ± 0.056 | 2.5 ± 0.045 | 2.54 ± 0.07 | 2.87 ± 0.059
FVFTNEPLTEIKNVIVS [RPP0] | 1.84 ± 0.057 | 2.68 ± 0.089 | 3.12 ± 0.076 | 2.73 ± 0.077
FVKPGTALDAEGAARGT [DIS3] | 3.1 ± 0.13 | 3.4 ± 0.2 | 3.24 ± 0.095 | 3.15 ± 0.097
FVNETPRVIEPVYTAQW [PRP8] | 1.57 ± 0.16 | 2.31 ± 0.15 | 2.19 ± 0.16 | 1.19 ± 0.1
FVNGVWHGVHRNPARLM [RPB2] | 1.68 ± 0.11 | 1.44 ± 0.067 | 3.39 ± 0.058 | 1.5 ± 0.042
FVSNMGFDIQKSCEPVS [SIR4] | 2.06 ± 0.066 | 2.05 ± 0.12 | 1.68 ± 0.24 | 2.12 ± 0.075
FVSSGFDTSIKLDIISD [RPN14] | 2.39 ± 0.045 | 2.53 ± 0.047 | 2.23 ± 0.057 | 2.44 ± 0.035
FVSYFGKQIKSTIYNWG [YML103C/NUP188] | 1.67 ± 0.11 | 1.39 ± 0.071 | 1.47 ± 0.099 | 1.6 ± 0.066
FYKNKYSSKPYKVDNMT [RPN2] | 2.44 ± 0.067 | 2.84 ± 0.072 | 2.79 ± 0.081 | 2.1 ± 0.075
FYVQDVYKDNLSFIQVR [RPO31] | 1.98 ± 0.049 | 1.69 ± 0.05 | 1.92 ± 0.068 | 1.88 ± 0.041
GAAPYAAKLKQTENDLK [RPT1] | 2.06 ± 0.14 | 2.35 ± 0.17 | 2.31 ± 0.24 | 2.93 ± 0.19
GAGSIFTSHTRLRQGAA [RPL2A] | 3.05 ± 0.1 | 3.2 ± 0.088 | 3.17 ± 0.049 | 3.25 ± 0.072
GALPPDLSLIVKARHGG [CYT1] | 1.83 ± 0.23 | 1.97 ± 0.14 | – | 2.23 ± 0.17
GAMTPEEIFFKSVRILK [RPC40] | 2.9 ± 0.12 | 3.28 ± 0.14 | 2.96 ± 0.14 | 3.22 ± 0.093
GAVIQLLKSTGLHPFEV [RPB4] | 3.32 ± 0.13 | 3.19 ± 0.14 | 3.07 ± 0.2 | 2.99 ± 0.084
GCIKIYSSRVDSVTTET [BRN1] | 2.43 ± 0.14 | 2.52 ± 0.13 | 2.35 ± 0.21 | 2.12 ± 0.17
GCVNSLISGPRNQILVS [YMR129W/POM152] | – | 1.36 ± 0.22 | – | –
GDDESKIPAVEYFGGES [FAS1] | – | 3.17 ± 0.29 | 2.97 ± 0.2 | –
